Laboratory results published in patent US20190024073.

What was measured:
Assay in all cases: cell_activity
[1] = test system: zebrafish nd4 forward mitoTALE-nickase-1 (synthetic (Xanthomonas TALE-FokI)?); settings: nd4 nickase-1 + nickase-2, zebrafish embryos
[2] = test system: zebrafish nd4 reverse mitoTALE-nickase-1 (synthetic (Xanthomonas TALE-FokI)?); settings: nd4 nickase-1 + nickase-2, zebrafish embryos
[3] = test system: zebrafish nd4 forward mitoTALE-nickase-2 (synthetic (Xanthomonas TALE-FokI)?); settings: nd4 nickase-1 + nickase-2, zebrafish embryos
[4] = test system: zebrafish nd4 reverse mitoTALE-nickase-2 (synthetic (Xanthomonas TALE-FokI)?); settings: nd4 nickase-1 + nickase-2, zebrafish embryos
[5] = test system: zebrafish atp8 reverse mitoTALE-nickase (synthetic (Xanthomonas TALE-FokI)?); settings: nd5+atp8 nickases, >90% with nd4 nuclease
[6] = test system: zebrafish nd5 reverse mitoTALE-nickase (synthetic (Xanthomonas TALE-FokI)?); settings: nd5+atp8 nickases, >90% with nd4 nuclease
[7] = test system: zebrafish nd5 forward mitoTALE-nickase (synthetic (Xanthomonas TALE-FokI)?); settings: nd5+atp8 nickases, >90% with nd4 nuclease
[8] = test system: zebrafish atp8 forward mitoTALE-nickase (synthetic (Xanthomonas TALE-FokI)?); settings: nd5+atp8 nickases, >90% with nd4 nuclease
[9] = test system: zebrafish nd4 forward mitoTALE nuclease (synthetic (Xanthomonas TALE-FokI)?); settings: co-injected with nd5 and atp8 nickases; heteroplasmic shift to about 2-10%
[10] = test system: zebrafish nd4 reverse mitoTALE nuclease (synthetic (Xanthomonas TALE-FokI)?); settings: co-injected with nd5 and atp8 nickases; heteroplasmic shift to about 2-10%

## TTACACCTAATTCCT (double strand) [zebrafish nd4 nickase-1 forward half-site]
[1]
  activity (% embryos with deletion): 50

## AAGTTCTGGTTTTAA (double strand) [zebrafish nd4 nickase-1 reverse half-site]
[2]
  activity (% embryos with deletion): 50

## GACTAAAATGAACCT (double strand) [zebrafish nd4 nickase-2 forward half-site]
[3]
  activity (% embryos with deletion): 50

## ACGAGTTAGAAGCAT (double strand) [zebrafish nd4 nickase-2 reverse half-site]
[4]
  activity (% embryos with deletion): 50

## TAGGTTGAATGTGAT (double strand) [zebrafish atp8 reverse half-site]
[5]
  activity (% embryos with deletion): 30

## GCTAGATGTGGTTGG (double strand) [zebrafish nd5 reverse half-site]
[6]
  activity (% embryos with deletion): 30

## AGGGCTAATGATAGT (double strand) [zebrafish nd5 forward half-site]
[7]
  activity (% embryos with deletion): 30

## TCCTTACTATTATTC (double strand) [zebrafish atp8 forward half-site]
[8]
  activity (% embryos with deletion): 30

## TATATTCGAAGCTAC (double strand) [zebrafish nd4 nuclease forward half-site]
[9]
  activity (% embryos with deletion): > 90

## CGGGTAATAATGATT (double strand) [zebrafish nd4 nuclease reverse half-site]
[10]
  activity (% embryos with deletion): > 90
